According to patent US20240189392A1 (AMBRX, published 2024):

Key:
Experiment in all cases: cell-based or functional assay
rat RXFP1 = target: T1, rat RXFP1 (rat, UniProt Q6R6I6 1-758)
T1 sequence (looked up): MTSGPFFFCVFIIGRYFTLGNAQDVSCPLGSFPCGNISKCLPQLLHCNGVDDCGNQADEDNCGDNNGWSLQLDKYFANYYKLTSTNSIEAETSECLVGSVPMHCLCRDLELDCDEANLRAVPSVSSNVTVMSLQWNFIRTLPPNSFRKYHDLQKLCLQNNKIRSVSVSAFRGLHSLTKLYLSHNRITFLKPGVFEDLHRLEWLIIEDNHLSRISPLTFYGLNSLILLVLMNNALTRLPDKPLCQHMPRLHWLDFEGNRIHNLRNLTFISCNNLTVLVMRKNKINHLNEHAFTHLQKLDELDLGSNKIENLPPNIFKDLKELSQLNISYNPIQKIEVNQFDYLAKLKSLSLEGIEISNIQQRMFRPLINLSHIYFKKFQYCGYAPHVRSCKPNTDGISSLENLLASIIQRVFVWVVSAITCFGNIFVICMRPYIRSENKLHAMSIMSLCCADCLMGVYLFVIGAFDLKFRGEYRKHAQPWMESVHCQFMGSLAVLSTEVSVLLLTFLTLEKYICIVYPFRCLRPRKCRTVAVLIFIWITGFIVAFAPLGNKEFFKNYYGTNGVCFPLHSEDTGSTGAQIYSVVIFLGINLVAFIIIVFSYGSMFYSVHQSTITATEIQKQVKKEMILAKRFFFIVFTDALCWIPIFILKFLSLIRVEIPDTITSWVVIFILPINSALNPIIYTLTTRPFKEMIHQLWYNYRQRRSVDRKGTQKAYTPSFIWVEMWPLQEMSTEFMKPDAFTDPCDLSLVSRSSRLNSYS

human RXFP3 = target: T2, human RXFP3 (human, UniProt Q9NSD7 1-469)
T2 sequence (looked up): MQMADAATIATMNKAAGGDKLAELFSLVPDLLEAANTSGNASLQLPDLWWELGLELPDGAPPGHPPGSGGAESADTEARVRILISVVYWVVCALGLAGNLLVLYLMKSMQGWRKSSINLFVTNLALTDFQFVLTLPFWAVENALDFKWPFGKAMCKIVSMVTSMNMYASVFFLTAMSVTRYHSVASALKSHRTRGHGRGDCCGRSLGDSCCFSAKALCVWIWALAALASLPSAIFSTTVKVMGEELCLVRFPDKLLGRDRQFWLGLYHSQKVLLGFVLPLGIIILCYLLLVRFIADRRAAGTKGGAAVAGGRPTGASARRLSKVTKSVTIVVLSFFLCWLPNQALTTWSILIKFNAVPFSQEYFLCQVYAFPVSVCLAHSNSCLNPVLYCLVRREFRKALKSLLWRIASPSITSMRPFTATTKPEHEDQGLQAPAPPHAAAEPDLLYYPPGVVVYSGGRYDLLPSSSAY

human RXFP1 = target: T3, human RXFP1 (human, UniProt Q9HBX9 1-757)
T3 sequence (looked up): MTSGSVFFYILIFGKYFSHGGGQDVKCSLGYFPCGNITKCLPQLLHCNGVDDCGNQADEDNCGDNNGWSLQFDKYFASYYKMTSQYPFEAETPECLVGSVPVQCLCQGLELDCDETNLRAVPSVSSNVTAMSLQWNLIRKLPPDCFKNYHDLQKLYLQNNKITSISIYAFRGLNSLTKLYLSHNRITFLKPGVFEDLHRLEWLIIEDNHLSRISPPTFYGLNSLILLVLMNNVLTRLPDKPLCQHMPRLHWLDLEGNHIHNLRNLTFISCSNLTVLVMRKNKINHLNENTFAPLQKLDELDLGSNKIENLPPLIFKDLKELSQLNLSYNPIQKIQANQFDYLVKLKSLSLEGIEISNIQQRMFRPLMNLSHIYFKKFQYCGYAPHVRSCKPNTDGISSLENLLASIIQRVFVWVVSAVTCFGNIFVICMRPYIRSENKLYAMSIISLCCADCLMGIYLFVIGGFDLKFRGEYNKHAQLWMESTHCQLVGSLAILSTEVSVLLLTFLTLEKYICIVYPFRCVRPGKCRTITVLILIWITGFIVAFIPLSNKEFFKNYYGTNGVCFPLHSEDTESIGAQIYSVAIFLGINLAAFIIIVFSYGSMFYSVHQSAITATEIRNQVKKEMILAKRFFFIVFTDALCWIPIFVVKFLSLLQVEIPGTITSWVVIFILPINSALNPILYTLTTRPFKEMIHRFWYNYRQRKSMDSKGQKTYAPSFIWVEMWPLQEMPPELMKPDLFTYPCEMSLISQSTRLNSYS

human RXFP4 = human RXFP4 (human, UniProt Q8TDU9 1-374)
Sequence of human RXFP4 (Q8TDU9 whole entry): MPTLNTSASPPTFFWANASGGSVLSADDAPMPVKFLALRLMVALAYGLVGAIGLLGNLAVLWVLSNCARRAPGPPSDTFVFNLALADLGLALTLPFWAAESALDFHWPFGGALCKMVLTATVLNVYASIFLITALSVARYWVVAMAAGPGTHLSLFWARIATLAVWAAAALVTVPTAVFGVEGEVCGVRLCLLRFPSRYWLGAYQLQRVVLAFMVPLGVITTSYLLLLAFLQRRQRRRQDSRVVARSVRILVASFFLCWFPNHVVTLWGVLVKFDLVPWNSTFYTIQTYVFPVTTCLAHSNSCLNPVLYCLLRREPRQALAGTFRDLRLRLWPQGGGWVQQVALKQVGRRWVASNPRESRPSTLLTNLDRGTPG

cynomolgus monkey RXFP1 = target: T4, cynomolgus monkey RXFP1 (cynomolgus monkey, UniProt H9ERA2 1-757 (rhesus entry))
T4 sequence: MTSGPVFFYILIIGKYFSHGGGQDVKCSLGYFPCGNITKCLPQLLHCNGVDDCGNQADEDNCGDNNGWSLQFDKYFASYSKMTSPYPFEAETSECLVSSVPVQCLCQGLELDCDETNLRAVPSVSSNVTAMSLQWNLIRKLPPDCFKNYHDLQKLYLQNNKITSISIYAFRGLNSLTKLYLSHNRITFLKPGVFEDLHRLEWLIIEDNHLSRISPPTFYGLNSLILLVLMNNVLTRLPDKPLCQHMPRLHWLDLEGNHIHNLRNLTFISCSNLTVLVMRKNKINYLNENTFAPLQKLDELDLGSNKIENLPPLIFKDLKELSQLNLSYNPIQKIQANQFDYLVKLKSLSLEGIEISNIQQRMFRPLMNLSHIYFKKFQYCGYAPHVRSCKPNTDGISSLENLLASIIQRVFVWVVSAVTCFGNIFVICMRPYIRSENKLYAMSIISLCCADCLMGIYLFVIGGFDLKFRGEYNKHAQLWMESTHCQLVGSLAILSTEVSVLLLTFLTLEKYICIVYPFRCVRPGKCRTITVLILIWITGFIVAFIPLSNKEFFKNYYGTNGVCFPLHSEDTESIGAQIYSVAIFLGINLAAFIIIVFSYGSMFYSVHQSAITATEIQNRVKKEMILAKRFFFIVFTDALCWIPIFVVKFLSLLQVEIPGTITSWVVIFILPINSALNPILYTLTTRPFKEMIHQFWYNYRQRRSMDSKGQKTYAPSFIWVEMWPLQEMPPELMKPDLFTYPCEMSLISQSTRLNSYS

dog RXFP1 = dog RXFP1 (dog)

B1: RLX-A-AQ1-20KPEG (ligand)
chain 1: XLYSALANKCCHVGCTKRSLARFC
chain 2: ASWMEEVIKLCGRELVRAQIAICGMSTWS
modifications: pACF (para-acetylphenylalanine) at position 1 of the A chain, linked to a 20 kDA PEG via an oxime linkage
For B1, the “Potency Ratio (RLX-A-AQ1-20KPEG/WT-RLX), cAMP assay, rat RXFP1/CHO-K1 cells” value (rat RXFP1) was 32 fold, the “RLX-A-AQ1-20KPEG Potency Ratio (hRXFP 1-1.0), cAMP assay” value (“RLX-A-AQ1-20KPEG Potency Ratio” below) (rat RXFP1) was 0.34 ratio and the “cAMP Assay EC50 (nM), rat RXFP1/CHO-K1 cells” value (rat RXFP1) was 1.1 nM. For the same binder, the “cAMP Assay EC50 (nM), inhibition of forskolin-induced cAMP, human RXFP3/CHO-K1 cells” value (human RXFP3) was greater than 3000 nM, the “Potency Ratio (RLX-A-AQ1-20KPEG/WT-RLX), cAMP assay, THP-1 cells” value (human RXFP1) was 26 fold and the “Potency Ratio (RLX-A-AQ1-20KPEG/WT-RLX), cAMP assay, hRXFP1/CHO-K1 cells” value (human RXFP1) was 32 fold. For the same binder, the “RLX-A-AQ1-20KPEG Potency Ratio” value (human RXFP1) was 1 ratio, the “cAMP Assay EC50 (nM), THP-1 cells” value (human RXFP1) was 7.6 nM and the “cAMP Assay EC50 (nM), hRXFP1/CHO-K1 cells” value (human RXFP1) was 3.2 nM. For the same binder, the “cAMP Assay EC50 (nM), inhibition of forskolin-induced cAMP, human RXFP4/CHO-K1 cells” value (human RXFP4) was greater than 3000 nM, the “Potency Ratio (RLX-A-AQ1-20KPEG/WT-RLX), cAMP assay, cyno RXFP1/CHO-K1 cells” value (cynomolgus monkey RXFP1) was 33 fold and the “RLX-A-AQ1-20KPEG Potency Ratio” value (cynomolgus monkey RXFP1) was 1.6 ratio. The “cAMP Assay EC50 (nM), cyno RXFP1/CHO-K1 cells” value (cynomolgus monkey RXFP1) was 1.97 nM, the “Potency Ratio (RLX-A-AQ1-20KPEG/WT-RLX), cAMP assay, dog RXFP1/CHO-K1 cells” value (dog RXFP1) was 27 fold and the “RLX-A-AQ1-20KPEG Potency Ratio” value (dog RXFP1) was 4.7 ratio. The “cAMP Assay EC50 (nM), dog RXFP1/CHO-K1 cells” value (dog RXFP1) was 15 nM.
